This is an account of results in patent US20200247855A1, “THERAPY AND DIAGNOSTICS” (OXFORD UNIVERSITY INNOVATION LIMITED, priority 2017, published 2020).

The target of test [1] is T1, CCL11_HUMAN (Homo sapiens, UniProt P51671). Briefly: Yeast surface display (YSD) FACS binding. The method, boiled down: (§1)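 Yeast clones displaying tick peptides were re-tested by FACS with labelled chemokine. Binding = % of peptide-expressing yeast above a background threshold set with streptavidin-Alexa647 alone; the mean percent shift was used where several clones were isolated. Confirmed binding ("YES") required >3-fold over background mean fluorescence intensity.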
T1 sequence (P51671 24-97): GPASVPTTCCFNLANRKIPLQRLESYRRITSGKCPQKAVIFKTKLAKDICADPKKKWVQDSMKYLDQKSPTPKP

Test [2] deals with T2, CCL18_HUMAN (Homo sapiens, UniProt P55774).
T2 sequence (P55774 21-89): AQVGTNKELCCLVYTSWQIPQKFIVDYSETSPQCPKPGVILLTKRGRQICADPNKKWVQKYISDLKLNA
The experiment in a line: Yeast surface display (YSD) FACS binding. The method, boiled down:
as §1

Test [3] addresses T3, CCL1_HUMAN (Homo sapiens, UniProt P22362).
T3 sequence (P22362 24-96): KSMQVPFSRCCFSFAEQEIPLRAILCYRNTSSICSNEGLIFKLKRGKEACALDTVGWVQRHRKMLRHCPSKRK
Briefly: Yeast surface display (YSD) FACS binding. The method, boiled down:
as §1
On the technique in general: In flow cytometry, cells or beads pass a laser one at a time.

Test [4] has as its target T4, CCL5_HUMAN (Homo sapiens, UniProt P13501).
T4 sequence (P13501 24-91): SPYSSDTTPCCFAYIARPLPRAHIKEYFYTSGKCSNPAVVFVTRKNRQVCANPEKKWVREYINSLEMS
Briefly: Yeast surface display (YSD) FACS binding. The method, boiled down:
as §1

The target in test [5] is CXCL12_HUMAN (Homo sapiens, UniProt P48061). Briefly: Yeast surface display (YSD) FACS binding. Particulars: yeast surface display. The method, boiled down:
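Yeast clones displaying tick peptides were re-tested by FACS with labelled chemokine detected by streptavidin-Alexa conjugate. Binding was scored as % of peptide-expressing cells above a background set with streptavidin-Alexa alone, averaged over independent clones. In the screen tables, >3-fold over background mean fluorescence intensity was scored as binding.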

Test [6] has as its target T1, CCL11_HUMAN. The experiment in a line: Biolayer interferometry (BLI) binding. The method, boiled down:
(§2)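 Analyte: chemokine, screened at 300 nM then as a dose series for binders. Ligand: purified His-tagged tick evasin on Ni-NTA sensors. Kd obtained by fitting association, equilibrium and dissociation traces.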
(In general: BLI is a label-free optical method that tracks binding on a fibre tip over time.)

Test [7] concerns the target CCL13_HUMAN (Homo sapiens, UniProt Q99616). Briefly: Biolayer interferometry (BLI) binding. The method, boiled down: as §2
Test [8] deals with T5, CCL14_HUMAN (Homo sapiens, UniProt Q16627).
T5 sequence (Q16627 20-93): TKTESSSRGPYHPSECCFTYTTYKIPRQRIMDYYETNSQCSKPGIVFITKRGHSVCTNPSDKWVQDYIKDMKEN
Briefly: Biolayer interferometry (BLI) binding. The method, boiled down: as §2

For test [9], the target named is T6, CCL15_HUMAN (Homo sapiens, UniProt Q16663).
T6 sequence (Q16663 22-113): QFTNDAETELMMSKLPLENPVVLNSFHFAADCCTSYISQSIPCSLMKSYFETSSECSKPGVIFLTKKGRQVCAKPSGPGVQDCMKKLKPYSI
Briefly: Biolayer interferometry (BLI) binding. The method, boiled down:
as §2

In test [10] the target is T2, CCL18_HUMAN. Briefly: Biolayer interferometry (BLI) binding. The method, boiled down:
as §2

Test [11] deals with T7, CCL19_HUMAN (Homo sapiens, UniProt Q99731).
T7 sequence (Q99731 22-98): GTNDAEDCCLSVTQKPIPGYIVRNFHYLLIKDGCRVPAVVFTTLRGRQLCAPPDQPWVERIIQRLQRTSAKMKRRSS
The experiment in a line: Biolayer interferometry (BLI) binding. The method, boiled down:
as §2

Test [12] concerns the target T8, CCL22_HUMAN (Homo sapiens, UniProt O00626).
T8 sequence (O00626 25-93): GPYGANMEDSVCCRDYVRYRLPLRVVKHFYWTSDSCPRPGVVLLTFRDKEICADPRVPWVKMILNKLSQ
Briefly: Biolayer interferometry (BLI) binding. The method, boiled down:
as §2

For test [13], the target named is T9, CCL23_HUMAN (Homo sapiens, UniProt P55773).
T9 sequence (P55773 22-120): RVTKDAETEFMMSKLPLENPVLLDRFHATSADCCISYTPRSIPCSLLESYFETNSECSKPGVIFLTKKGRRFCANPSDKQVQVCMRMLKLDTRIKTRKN
The experiment in a line: Biolayer interferometry (BLI) binding. The method, boiled down:
as §2

Test [14] deals with T10, CCL24_HUMAN (Homo sapiens, UniProt O00175).
T10 sequence (O00175 27-119): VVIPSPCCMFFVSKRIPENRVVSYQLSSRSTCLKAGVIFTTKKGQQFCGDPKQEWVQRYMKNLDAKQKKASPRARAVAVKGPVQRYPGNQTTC
Briefly: Biolayer interferometry (BLI) binding. The method, boiled down: as §2

Test [15] has as its target T11, CCL27_HUMAN (Homo sapiens, UniProt Q9Y4X3).
T11 sequence (Q9Y4X3 25-112): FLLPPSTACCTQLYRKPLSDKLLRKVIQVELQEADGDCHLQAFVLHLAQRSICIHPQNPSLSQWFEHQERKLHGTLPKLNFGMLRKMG
The experiment in a line: Biolayer interferometry (BLI) binding. The method, boiled down:
as §2

Test [16] addresses CCL3L1_HUMAN (Homo sapiens, UniProt P16619). The experiment in a line: Biolayer interferometry (BLI) binding. The method, boiled down: as §2
Test [17] deals with T12, CCL4L1_HUMAN (Homo sapiens, UniProt Q8NHW4).
T12 sequence (Q8NHW4 24-92): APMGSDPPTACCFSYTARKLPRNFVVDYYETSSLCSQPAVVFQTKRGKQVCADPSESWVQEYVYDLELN
The experiment in a line: Biolayer interferometry (BLI) binding. The method, boiled down: as §2

The target of test [18] is T13, CCL4_HUMAN (Homo sapiens, UniProt P13236).
T13 sequence (P13236 24-92): T12 sequence (Q8NHW4 24-92) with G47S
The experiment in a line: Biolayer interferometry (BLI) binding. The method, boiled down: as §2

For test [19], the target named is T4, CCL5_HUMAN. Briefly: Biolayer interferometry (BLI) binding. The method, boiled down: as §2
In test [20] the target is CCL7_HUMAN (Homo sapiens, UniProt P80098). Briefly: Biolayer interferometry (BLI) binding. The method, boiled down: as §2
CCL7_HUMAN, sequence (P80098 24-99): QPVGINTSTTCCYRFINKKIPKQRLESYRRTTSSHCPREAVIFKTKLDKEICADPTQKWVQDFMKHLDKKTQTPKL
Test [21] deals with T14, CCL8_HUMAN (Homo sapiens, UniProt P80075).
T14 sequence (P80075 24-99): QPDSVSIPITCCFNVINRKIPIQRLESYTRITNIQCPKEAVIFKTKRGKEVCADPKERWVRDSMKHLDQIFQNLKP
Briefly: Biolayer interferometry (BLI) binding. Conditions: read-out: Kd, CCL8_HUMAN. The method, boiled down:
as §2

Changes are numbered by the printed parent chain.

CXCL12_HUMAN, sequence (P48061 22-93): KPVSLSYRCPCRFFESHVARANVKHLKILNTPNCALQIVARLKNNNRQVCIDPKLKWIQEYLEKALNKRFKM
CCL3L1_HUMAN, sequence (P16619 24-93): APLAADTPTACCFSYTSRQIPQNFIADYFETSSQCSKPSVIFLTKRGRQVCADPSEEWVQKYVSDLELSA
CCL13_HUMAN, sequence (Q99616 17-98): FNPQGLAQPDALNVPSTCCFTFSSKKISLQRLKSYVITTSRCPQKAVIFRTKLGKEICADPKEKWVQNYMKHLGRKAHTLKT

B1: P1029_AMBPA: tick CKBP, Amblyomma parvum; named P1209_AMBPA in Table 1 (protein, listed as Amblyomma parvum)
chain: KTDTKNAAGELPPKVAIPGCEDPATTKAPLPDDPRYYGVTIDKDGCQRKVLGSSQRQQRQVQNGRKPGRKGRGRRPVFVDLKLTVDCKRKCNGTYSQLPDGEPCLVCDGEPYGRHRTIKGGCYQGNCSSGQCHRGERKVNCYIPKNITNNVLNSVNLAE
Take B1: the “Binding to CCL11_HUMAN, YSD” value in test [1] is given as “YES (An arbitrary threshold of >3 fold over background mean fluorescence intensity was chosen to describe confirmed re-tests. Where binding was detected data are indicated as “YES”)”. Also, the “Binding to CCL18_HUMAN, YSD” value in test [2] is “YES (An arbitrary threshold of >3 fold over background mean fluorescence intensity was chosen to describe confirmed re-tests. Where binding was detected data are indicated as “YES”)”. The “Binding to CCL1_HUMAN, YSD” value in test [3] is listed as “YES (An arbitrary threshold of >3 fold over background mean fluorescence intensity was chosen to describe confirmed re-tests. Where binding was detected data are indicated as “YES”)”. Further, the “Binding to CCL5_HUMAN, YSD” value in [4] is “YES (An arbitrary threshold of >3 fold over background mean fluorescence intensity was chosen to describe confirmed re-tests. Where binding was detected data are indicated as “YES”)”. Besides, in test [5], the “Binding to CXCL12_HUMAN, YSD” value is reported as “YES (An arbitrary threshold of >3 fold over background mean fluorescence intensity was chosen to describe confirmed re-tests. Where binding was detected data are indicated as “YES”)”.

B2: P991_AMBCA: tick CKBP, Amblyomma cajennense (protein)
chain: ENGEGTTQPDYDNSTDYYNYEDFKCTCPAPHLNNTNGTVMKPIGCYYTCNVTRCTAPDTYPCYNLTEHQAKNLTTSPTTLCAVGNCDHGICVPNGTKELCFKAPNLEE
modifications: Amblyomma cajennense
Turning to B2, the Kd in test [6] worked out at 3.43 nM; in test [7], 0.419 nM; in test [8] it was 0.43 nM; in test [9], 159 nM; in test [10] it was 0.209 nM; in test [11], 14.4 nM. The dissociation constant Kd in test [12] was found to be 3.97 nM; in [13], 5.58 nM; in test [14], 6.54 nM; in test [15], 38.9 nM; in test [16] it was 1.4 nM; in [17], 0.827 nM. In addition, the Kd in test [18] is 5.82 nM; in [19], 1.47 nM; in [20], 0.514 nM; in [21] it was 8.79 nM.

The term Kd denotes the free concentration of one partner at which half of the binding sites on the other are occupied at equilibrium, for simple one-to-one binding.
